In patent publication US20110251246A1:

Molecular target: His-tagged MUC1 cytoplasmic domain (His-MUC1-CD) (human)
Test: SPR (BIAcore), His-MUC1-CD immobilized on the sensor chip, peptide injected at 10 µM, 1:1 binding model

Kd: 30 nM
Substance: MUC1/CQC peptide
